The text below walks through data of publication PMC12450638 (The Journal of Biological Chemistry, 2025).

In this assay the target is T1, β2m of the single-chain construct (Homo sapiens (Human)., UniProt P61769).
T1 construct: β2-microglobulin; In the cryo-EM sample it is the middle part of m3; also called B2m; source: part of the single-chain construct m3
Kind of assay: cryo-EM structure; single-chain P2R-linker-β2m-linker-B∗73:01 copurified with Fabs B.1 and B.8; Hepes-buffered saline pH 7.2, about 0.07 mM fluorinated octyl maltoside; 3.1 Å. The following applies: both partners purified.

T1 sequence (P61769 21-119): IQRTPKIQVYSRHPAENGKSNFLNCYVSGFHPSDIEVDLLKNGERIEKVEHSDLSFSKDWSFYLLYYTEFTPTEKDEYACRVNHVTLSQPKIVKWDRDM

B1: Fab B.1 (Fab, V domains shown)
VH: EVQLVESGGGLVQPGGSLRLSCAASGFNVSYYSIHWVRQAPGKGLEWVASISPYSGSTSYADSVKGRFTISADTSKNTAYLQMNSLRAEDTAVYYCARYSYGNSWSYDPYYGAMDYWGQGTLVTVSS
VL: DIQMTQSPSSLSASVGDRVTITCRASQSVSSAVAWYQQKPGKAPKLLIYSASSLYSGVPSRFSGSRSGTDFTLTISSLQPEDFATYYCQQYYWAPITFGQGTKVEIK
notes: synthetic Fab; model deposited in PDB 8TNJ (constant domain portion not visible in the map)
Turning to B1, the binding result is reported as “binds”.
